In this experiment the target is porcine milk butyrylcholinesterase (Sus scrofa (domestic pig), UniProt A0A4X1VEU5). Kind of experiment: ELISA.
Sequence of porcine milk butyrylcholinesterase (P32752 whole entry): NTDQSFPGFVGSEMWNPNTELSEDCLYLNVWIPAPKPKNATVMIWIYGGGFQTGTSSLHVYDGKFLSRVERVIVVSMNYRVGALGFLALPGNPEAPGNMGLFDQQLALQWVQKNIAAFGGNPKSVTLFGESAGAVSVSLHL

B1: mouse anti-HuBChE monoclonal antibody B2 18-5 (antibody, V domains shown)
VH: QVQLQQSGAELVRPGSSVKISCKASGYAFSDYWMNWVKQRPGQGLEWIGQIYPGDGDTYYNGKFKGKATLTADKSSSTAYMQLSSLISEDSAVYFCARSRPLLDYSMHYWGQGASVTVSS
VL: DIQMTQSSSSFSVSLGDRVTITCKTSEDIYNRLAWYQQKPGNAPRLLISGATSLETGVPSRFSGSGSGEDFTLSITSLQTEDVATYYCQQYWSTPYTFGGGTKLEIK
Take B1: the binding result was “no binding”.
